Experimental data taken from the supplement of paper PMC11246515.
± gives the standard deviation of the averaged measurements.

Test: total protein half-life in vivo (active degradation + dilution); higher = more stable protein
[1] = E. coli NCM3722 delta-clpP delta-lon delta-hslV, growth: N-lim chemostat, doubling time 6 h
[2] = E. coli NCM3722 delta-smpB, growth: N-lim chemostat, doubling time 6 h
[3] = wild type E. coli NCM3722, growth: C-lim chemostat, doubling time 6 h
[4] = wild type E. coli NCM3722, growth: C-lim chemostat, doubling time 12 h
[5] = wild type E. coli NCM3722, growth: P-lim chemostat, doubling time 12 h
[6] = E. coli NCM3722 delta-clpP, growth: N-lim chemostat, doubling time 6 h
[7] = E. coli NCM3722 delta-lon, growth: N-lim chemostat, doubling time 6 h
[8] = wild type E. coli NCM3722, growth: N-lim chemostat, doubling time 6 h
[9] = wild type E. coli NCM3722, growth: N-lim chemostat, doubling time 12 h
[10] = E. coli NCM3722 delta-hslV, growth: N-lim chemostat, doubling time 6 h
[11] = wild type E. coli NCM3722, growth: C-lim chemostat, doubling time 3 h
[12] = wild type E. coli NCM3722, growth: P-lim chemostat, doubling time 6 h

Sequence	total protein half-life in vivo [1] [h]	total protein half-life in vivo [2] [h]	total protein half-life in vivo [3] [h]	total protein half-life in vivo [4] [h]	total protein half-life in vivo [5] [h]	total protein half-life in vivo [6] [h]	total protein half-life in vivo [7] [h]	total protein half-life in vivo [8] [h]	total protein half-life in vivo [9] [h]	total protein half-life in vivo [10] [h]	total protein half-life in vivo [11] [h]	total protein half-life in vivo [12] [h]
METPQPDKTGMHILLKLASLVVILAGIHAAADIIVQLLLALFFAIVLNPLVTWFIRRGVQRPVAITIVVVVMLIALTALVGVLAASFNEFISMLPKFNKELTRKLFKLQEMLPFLNLHMSPERMLQRMDSEKVVTFTTALMTGLSGAMASVLLLVMTVVFMLFEVRHVPYKMRFALNNPQIHIAGLHRALKGVSHYLALKTLLSLWTGVIVWLGLELMGVQFALMWAVLAFLLNYVPNIGAVISAVPPMIQVLLFNGVYECILVGALFLVVHMVIGNILEPRMMGHRLGMSTMVVFLSLLIWGWLLGPVGMLLSVPLTSVCKIWMETTKGGSKLAILLGPGRPKSRLPG [P0AGM0]	6.64 ± 0.097	5.16	7.02	11.5 ± 0.41	13.6	–	–	–	–	–	–	–
MSTQLDPTQLAIEFLRRDQSNLSPAQYLKRLKQLELEFADLLTLSSAELKEEIYFAWRLGVH	5.63 ± 0.47	1.29	–	1.9	0.514	3.08 ± 0.39	2.3	0.632	1.08	–	–	–
MEMTNAQRLILSNQYKMMTMLDPANAERYRRLQTIIERGYGLQMRELDREFGELKEETCRTIIDIMEMYHALHVSWSNLQDQQSIDERRVTFLGFDAATEARYLGYVRFMVNVEGRYTHFDAGTHGFNAQTPMWEKYQRMLNVWHACPRQYHLSANEINQIINA [P0A8W8]	6.72 ± 0.27	5.32 ± 0.45	6.14 ± 0.35	12.1 ± 0.18	> 16	6.41 ± 0.99	6.11 ± 0.3	5.83 ± 0.58	12.9 ± 2.1	6.154 ± 0.032	3.28 ± 0.18	6.41 ± 0.61
MFKKILFPLVALFMLAGCAKPPTTIEVSPTITLPQQDPSLMGVTVSINGADQRTDQALAKVTRDNQIVTLTASRDLRFLLQEVLEKQMTARGYMVGPNGPVNLQIIVSQLYADVSQGNVRYNIATKADIAIIATAQNGNKMTKNYRASYNVEGAFQASNKNIADAVNSVLTDTIADMSQDTSIHEFIKQNAR [P0ADA5]	6.32 ± 1.6	5.86 ± 0.59	7.64 ± 0.29	12.6 ± 0.17	14.94 ± 0.13	–	6.15 ± 0.68	6.36 ± 0.12	13 ± 0.98	–	> 4	6.254 ± 0.035
MIFTSSCCDNLSIDEIIERAEKGDCEAQYIVGFYYNRDSAIDSPDDEKAFYWLKLAAEQGHCEAQYSLGQKYTEDKSRHKDNEQAIFWLKKAALQGHTFASNALGWTLDRGEAPNYKEAVVWYQIAAESGMSYAQNNLGWMYRNGNGVAKDYALAFFWYKQAALQGHSDAQNNLADLYEDGKGVAQNKTLAAFWYLKSAQQGNRHAQFQIAWDYNAGEGVDQDYKQAMYWYLKAAAQGSVGAYVNIGYMYKHGQGVEKDYQAAFEWFTKAAECNDATAWYNLAIMYHYGEGRPVDLRQALDLYRKVQSSGTRDVSQEIRETEDLL	6.2	–	–	–	–	–	–	–	–	–	–	–
MLKPEMIEKLNEQMNLELYSSLLYQQMSAWCSYHTFEGAAAFLRRHAQEEMTHMQRLFDYLTDTGNLPRINTVESPFAEYSSLDELFQETYKHEQLITQKINELAHAAMTNQDYPTFNFLQWYVSEQHEEEKLFKSIIDKLSLAGKSGEGLYFIDKELSTLDTQN [P0A998]	5.44 ± 1.7	3.38 ± 1.6	5.8 ± 0.56	–	10.6 ± 0.44	3.41 ± 0.55	4.12 ± 0.86	3.33 ± 0.25	4.479 ± 0.025	3.94 ± 1.3	–	4.92 ± 0.45
MLDAQTIATVKATIPLLVETGPKLTAHFYDRMFTHNPELKEIFNMSNQRNGDQREALFNAIAAYASNIENLPALLPAVEKIAQKHTSFQIKPEQYNIVGEHLLATLDEMFSPGQEVLDAWGKAYGVLANVFINREAEIYNENASKAGGWEGTRDFRIVAKTPRSALITSFELEPVDGGAVAEYRPGQYLGVWLKPEGFPHQEIRQYSLTRKPDGKGYRIAVKREEGGQVSNWLHNHANVGDVVKLVAPAGDFFMAVADDTPVTLISAGVGQTPMLAMLDTLAKAGHTAQVNWFHAAENGDVHAFADEVKELGQSLPRFTAHTWYRQPSEADRAKGQFDSEGLMDLSKLEGAFSDPTMQFYLCGPVGFMQFTAKQLVDLGVKQENIHYECFGPHKVL	2.41 ± 0.082	1.75 ± 0.062	3.62 ± 0.29	5.61 ± 0.94	7.88 ± 1.2	1.52 ± 0.25	1.85 ± 0.057	1.79 ± 0.19	2.36 ± 0.053	1.56 ± 0.032	2.76 ± 0.13	4.51 ± 0.079
